# Laboratory results reported in US20070066682A1, “Arylalkylamine vanadium (V) salts for the treatment and/or prevention of Diabetes mellitus” (priority 2005, published 2007).
# B1: Mouse SSAO/VAP-1 (Mus musculus) (protein)
# chain: MTQKTTLVLLALAVITIFALVCVLLAGRSGDGGGLSQPLHCPSVLPSVQPRTHPSQSQPFADLSPEELTAVMSFLTKHLGPGLVDAAQARPSDNCVFSVELQLPAKAAALAHLDRGGPPPVREALAIIFFGGQPKPNVSELVVGPLPHPSYMRDVTVERHGGPLPYYRRPVLDREYQDIEEMIFHRELPQASGLLHHCCFYKHQGQNLLTMTTAPRGLQSGDRATWFGLYYNLSGAGFYPHPIGLELLIDHKALDPALWTIQKVFYQGRYYESLTQLEDQFEAGLVNVVLVPNNGTGGSWSLKSSVPPGPAPPLQFHPQGPRFSVQGSQVSSSLWAFSFGLGAFSGPRIFDIRFQGERVAYEISVQEAIALYGGNSPASMSTCYVDGSFGIGKYSTPLIRGVDCPYLATYVDWHFLLESQAPKTLRDAFCVFEQNQGLPLRRHHSDFYSHYFGGVVGTVLVVRSVSTLLNYDYIWDMVFHPNGAIEVKFHATGYISSAFFFGAGEKFGNRVGAHTLGTVHTHSAHFKVDLDVAGLKNWAWAEDMAFVPTIVPWQPEYQMQRLQVTRKLLETEEEAAFPLGGATPRYLYLASNHSNKWGHRRGYRIQILSFAGKPLPQESPIEKAFTWGRYHLAVTQRKEEEPSSSSIFNQNDPWTPTVNFTDFISNETIAGEDLVAWVTAGFLHIPHAEDIPNTVTAGNSVGFFLRPYNFFDEDPSFHSADSIYFREGQDATACEVNPLACLSQTATCAPEIPAFSHGGFAYRDN
# B2: Human SSAO/VAP-1 (Homo sapiens) (protein)
# chain: MNQKTILVLLILAVITIFALVCVLLVGRGGDGGEPSQLPHCPSVSPSAQPWTHPGQSQLFADLSREELTAVMRFLTQRLGPGLVDAAQARPSDNCVFSVELQLPPKAAALAHLDRGSPPPAREALAIVFFGRQPQPNVSELVVGPLPHPSYMRDVTVERHGGPLPYHRRPVLFQEYLDIDQMIFNRELPQASGLLHHCCFYKHRGRNLVTMTTAPRGLQSGDRATWFGLYYNISGAGFFLHHVGLELLVNHKALDPARWTIQKVFYQGRYYDSLAQLEAQFEAGLVNVVLIPDNGTGGSWSLKSPVPPGPAPPLQFYPQGPRFSVQGSRVASSLWTFSFGLGAFSGPRIFDVRFQGERLVYEISLQEALAIYGGNSPAAMTTRYVDGGFGMGKYTTPLTRGVDCPYLATYVDWHFLLESQAPKTIRDAFCVFEQNQGLPLRRHHSDLYSHYFGGLAETVLVVRSMSTLLNYDYVWDTVFHPSGAIEIRFYATGYISSAFLFGATGKYGNQVSEHTLGTVHTHSAHFKVDLDVAGLENWVWAEDMVFVPMAVPWSPEHQLQRLQVTRKLLEMEEQAAFLVGSATPRYLYLASNHSNKWGHPRGYRIQMLSFAGEPLPQNSSMARGFSWERYQLAVTQRKEEEPSSSSVFNQNDPWAPTVDFSDFINNETIAGKDLVAWVTAGFLHIPHAEDIPNTVTVGNGVGFFLRPYNFFDEDPSFYSADSIYFRGDQDAGACEVNPLACLPQAAACAPDLPAFSHGGFSHN
# Key:
# Type in all cases: biochemical
# [1] = substrate: NCCc1ccc(F)cc1; assay: Kinetic parameters, mouse SSAO/VAP-1; details: other: Mouse SSAO/VAP-1
# Method: (§1) The continuous spectrophotometric detection of SSAO-dependent H2O2 production based on a peroxidase-coupled reaction was performed as previously described by Abella et al. (2004, Diabetologia 47: 429-438) and following the procedure described by Holt et al., (1997, Anal. Biochem. 244: 384-392).
# (§2) Compounds listed in Table 1 were prepared according to the methods described above, purity was determined by HPLC at 220 nm, molecular weight calculated by mass spectrometer. Human and mouse SSAO activity was determined by detecting the production of hydrogene peroxide in the presence of the different compounds present at 1 mM for human and 100 μM for mice activity measurements. Compounds in Table 2″ were similarly assayed. Values are means of percentages relative to benzylamine-related hydrogen production. Kinetic Parameters for select compounds are set forth in Table 3 (Mouse SSAO) and Table 4 (Human SSAO).
# [2] = substrate: NCc1ccc(F)cc1; assay: Kinetic parameters, mouse SSAO/VAP-1; details: other: Mouse SSAO/VAP-1
# Method: as §1, §2
# [3] = substrate: NCCCCc1ccccc1; assay: Kinetic parameters, mouse SSAO/VAP-1; details: other: Mouse SSAO/VAP-1
# Method: as §1, §2
# [4] = substrate: NCc1ccccc1; assay: Kinetic parameters, mouse SSAO/VAP-1; details: other: Mouse SSAO/VAP-1
# Method: as §1, §2
# [5] = substrate: NCCCc1ccccc1; assay: Kinetic parameters, mouse SSAO/VAP-1; details: other: Mouse SSAO/VAP-1
# Method: as §1, §2
# [6] = substrate: NCCc1ccccc1; assay: Kinetic parameters, mouse SSAO/VAP-1; details: other: Mouse SSAO/VAP-1
# Method: as §1, §2
# [7] = substrate: NCCc1ccc(F)cc1; assay: Kinetic parameters, human SSAO/VAP-1; details: other: Human SSAO/VAP-1
# Method: as §1, §2
# [8] = substrate: NCc1ccc(F)cc1; assay: Kinetic parameters, human SSAO/VAP-1; details: other: Human SSAO/VAP-1
# Method: as §1, §2
# [9] = substrate: NCCCCc1ccccc1; assay: Kinetic parameters, human SSAO/VAP-1; details: other: Human SSAO/VAP-1
# Method: as §1, §2
# [10] = substrate: NCc1ccccc1; assay: Kinetic parameters, human SSAO/VAP-1; details: other: Human SSAO/VAP-1
# Method: as §1, §2
# [11] = substrate: NCCCc1ccccc1; assay: Kinetic parameters, human SSAO/VAP-1; details: other: Human SSAO/VAP-1
# Method: as §1, §2
# [12] = substrate: NCCc1ccccc1; assay: Kinetic parameters, human SSAO/VAP-1; details: other: Human SSAO/VAP-1
# Method: as §1, §2
protein,measurement,setting,value
B1,Km,[1],31 ± 10 µM
same,kcat/Km,[1],488 M⁻¹ s⁻¹
same,Km,[2],29.1 ± 4.8 µM
same,kcat/Km,[2],1490 M⁻¹ s⁻¹
same,Km,[3],8.8 ± 2.9 µM
same,kcat/Km,[3],3910 M⁻¹ s⁻¹
same,Km,[4],27.5 ± 9.9 µM
same,kcat/Km,[4],3780 M⁻¹ s⁻¹
same,Km,[5],10 ± 1.2 µM
same,kcat/Km,[5],1670 M⁻¹ s⁻¹
same,Km,[6],4.8 ± 13 µM
same,kcat/Km,[6],3040 M⁻¹ s⁻¹
B2,Km,[7],2805 ± 613 µM
same,Vmax,[7],0.263 µmol/min/mg
same,kcat,[7],0.38 s⁻¹
same,kcat/Km,[7],135 M⁻¹ s⁻¹
same,Km,[8],647 ± 32 µM
same,Vmax,[8],0.27 µmol/min/mg
same,kcat,[8],0.39 s⁻¹
same,kcat/Km,[8],600 M⁻¹ s⁻¹
same,Km,[9],430 ± 110 µM
same,Vmax,[9],0.577 µmol/min/mg
same,kcat,[9],0.83 s⁻¹
same,kcat/Km,[9],1930 M⁻¹ s⁻¹
same,Km,[10],277 ± 33 µM
same,Vmax,[10],0.294 µmol/min/mg
same,kcat,[10],0.42 s⁻¹
same,kcat/Km,[10],1530 M⁻¹ s⁻¹
same,Km,[11],1339 ± 140 µM
same,Vmax,[11],0.156 µmol/min/mg
same,kcat,[11],0.22 s⁻¹
same,kcat/Km,[11],168 M⁻¹ s⁻¹
same,Km,[12],2918 ± 1910 µM
same,Vmax,[12],0.05 µmol/min/mg
same,kcat,[12],0.07 s⁻¹
same,kcat/Km,[12],25 M⁻¹ s⁻¹
